Tests used:
[1] = target: T1, HLA-A2 molecules (Homo sapiens, UniProt P04439, D140Y/D185E/D98H/E176V/E277Q/G131W/G231S/I119V/I121R/I166T/I218V/L300P/L318F/N151K/N90K/P208A/P217A/Q86G/Q94H/R138H/R169H/T345S); assay: T2 cell-binding assay: regulation of HLA-A2 expression on T2 cells by flow cytometry; details: for T2 Binding: peptide 25 μg/mL, T2 cells, flow cytometry
T1 construct: endogenous in cells; host or cells: T2 cells
Source text: FIG. 1B is a graph depicting the binding of the P703 and P215 peptides to HLA-A2 molecules at various peptide concentrations. Peptide concentration (μg/mL) is on the x-axis, and mean fluorescence intensity (MFI) is on the y-axis. The positive control peptide is MUC-1, and the negative control peptide is CAP-7.
The T2 binding values are expressed in mean fluorescence intensity. The values in parentheses are fold increases as compared with the negative control (CAP-7 peptide).

[2] = target: T1, HLA-A2 molecules; assay: Stability of peptide-HLA-A2 complexes on T2 cells after brefeldin A; format: binding; details: peptide 25 μg/mL overnight with T2 cells, various time points
Procedure: FIG. 1A is a graph depicting the stability of HLA-A2/NGEP complexes for various peptides. The time post-treatment with brefeldin A (hours) is on the x-axis, and the percentage of remaining complexes is on the y-axis. Results are expressed in relative percentage of binding compared to 100% at time 0.
To determine the stability of peptide-MHC complexes, several of the identified peptides (at concentrations of 25 μg/mL) were incubated with T2 cells overnight. Unbound peptides were washed off, and delivery of new class 1 molecules to the cell surface was blocked by the addition of brefeldin A. Cells then were analyzed for the presence of peptide-HLA-A2 complexes at various time points, as indicated by the degree of mean fluorescence intensity. […] P703 peptide also was determined to bind T2 cells at higher levels at various peptide concentrations than the P215 peptide and the positive control (see FIG. 1B).

[3] = tested on: CD8+ T cells in PBMC; assay: Tetramer staining of PBMC from healthy donors and prostate cancer patients; format: cell-based, human; details: Patients 2, 3 and 4 of four, pre-vaccination
Procedure: To determine if prostate cancer patients recognized the NGEP-P703 epitope, PBMC from four patients with metastatic prostate cancer and from four healthy donors were analyzed for the presence of CD8^+ T cells reactive with the NGEP-P703 tetramer. T cells (5×10^5) were stained with 10 μl of PE-labeled NGEP-P703/HLA-A*0201 tetramer and anti-CD8 antibody.
These same four prostate cancer patients then were analyzed for tetramer binding after receiving six monthly cycles of a PSA-based vaccine (PSA/TRICOM).

Sequence	T2 Binding [1]	other results
ALLSASWAV [Peptide P170, NGEP long form amino acids 170-178]	185 mean fluorescence intensity	–
FLDNIRAAGL [Peptide P143, NGEP short form amino acids 143-152]	203 mean fluorescence intensity	–
GLFDEYLEMV [Peptide P703, NGEP long form amino acids 703-712]	565 mean fluorescence intensity	Binding to T2 cells at various peptide concentrations (FIG. 1B) ([1]; compared with P215 peptide and positive control): higher levels; Stability of peptide-HLA-A2 complexes (FIG. 1A) [2]: most stable complexes; Frequency of NGEP-P703 specific CD8+ T cells, prostate cancer patients versus healthy donors [3]: higher frequency
GLGGPPLPTL [Peptide P10, NGEP short form amino acids 10-19]	212 mean fluorescence intensity	–
HLFGYSWYK [CAP-7, reference compound]	88.0 mean fluorescence intensity	–
ILFEILAKT [Peptide P258, NGEP long form amino acids 258-266]	280 mean fluorescence intensity	–
IVFEHVVFSV [Peptide P855, NGEP long form amino acids 855-864]	203 mean fluorescence intensity	–
LLAIRLWAV [Peptide P846, NGEP long form amino acids 846-854]	126 mean fluorescence intensity	–
LVWEEDLKL [Peptide P113, NGEP short form amino acids 113-121]	367 mean fluorescence intensity	–
SLSYTNPAV [MUC-1, reference compound]	452 mean fluorescence intensity	–
VLLEVVPDV [Peptide P215, NGEP long form amino acids 215-223]	464 mean fluorescence intensity	–
WLLPAAVVGT [Peptide P356, NGEP long form amino acids 356-365]	354 mean fluorescence intensity	–

Reference: patent publication US8748390B2, “Immunogenic epitopes of NGEP antigen” (The United States of America, as represented by the …, priority 2009, dated 2014)
